Each block holds one binder with its values, some of them ahead of it.
Assays:
hPAR4 (Biotin) peptide [1] = biological target: T1, hPAR4 (Biotin) peptide (human, biotin on the C-terminal lysine (SKB)); assay: SPR Biacore T200, biotin peptide on SA chip, whole mAb as analyte
T1 construct: also called hPAR4-biotinylated peptide; biotin-coupled human PAR4 peptide
T1 peptide: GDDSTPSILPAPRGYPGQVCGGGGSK
Procedure: (§1) The kinetics of the binding interaction between the mAbs and hPAR4 was measured using Surface Plasmon Resonance (SPR; Biacore) by two different methods: 1. Anti-mouse Fc mAb capture method and 2. Streptavidin (SA) chip to capture biotinylated peptide. The ka(on) rate and kd(off) rates and KD were measured and fitted to a Langmuir model using the Biacore evaluation software.

hPAR4 11-20 peptide = biological target: T2, hPAR4 11-20 peptide (human); assay: ELISA, peptide coated on the plate, purified mAb, background subtracted
T2 construct: Range counted on the hPAR4 immunising peptide; the C-terminal cysteine was removed, so nine residues are given; also called peptide 11-20
T2 peptide: APRGYPGQV
Procedure: (§2) Briefly the peptides were coated onto a Nunc maxisorp ELISA plate at 10 ug/ml overnight in coating buffer (0.1 M sodium carbonate pH8.0). Purified mAbs diluted in PBS were used in place of supernatant.

hPAR4 1-9 peptide = biological target: T3, hPAR4 1-9 peptide (human); assay: as above
T3 construct: Range counted on the hPAR4 immunising peptide; also called peptide 1-9
T3 peptide: GDDSTPSIL
Procedure: as §2

hPAR4 8-15 peptide = biological target: T4, hPAR4 8-15 peptide (human); assay: as above
T4 construct: Range counted on the hPAR4 immunising peptide; also called peptide 8-15; core peptide
T4 peptide: ILPAPRGY
Procedure: as §2

hPAR4 (naked) peptide [2] = biological target: T5, hPAR4 (naked) peptide (human); assay: ELISA, purified mAb on hPAR4 peptide
T5 construct: also called native PAR4 peptide; hPAR4 peptide
T5 peptide: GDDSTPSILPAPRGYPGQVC

hPAR4 (naked) peptide [3] = biological target: T5, hPAR4 (naked) peptide; assay: SPR Biacore T200, mAb captured by anti-mouse Fc, hPAR4 peptide as analyte
Procedure: A series S CM5 sensor chip was activated with standard EDC/NHS amine coupling chemistry using the manufacturers recommended protocol with Goat anti-mouse IgG Fc. Anti-hPAR4 mAbs were captured at 1-2 ug/ml for 2 minutes at 10 ul/minute on flow cell 2 (FC2) and flow cell 1 (FC1) was used as a reference channel. […] Blank injections of buffer alone were also performed. All injections were performed in duplicate and in a random order.
as §1

[4] = biological target: T6, human PAR4 on isolated human platelets (human, UniProt Q96RI0 18-385); assay: flow cytometry on isolated human platelets
T6 construct: Endogenous receptor of donor platelets; donors carry Ala120 and/or Thr120; also called PAR4 on human platelets
T6 sequence: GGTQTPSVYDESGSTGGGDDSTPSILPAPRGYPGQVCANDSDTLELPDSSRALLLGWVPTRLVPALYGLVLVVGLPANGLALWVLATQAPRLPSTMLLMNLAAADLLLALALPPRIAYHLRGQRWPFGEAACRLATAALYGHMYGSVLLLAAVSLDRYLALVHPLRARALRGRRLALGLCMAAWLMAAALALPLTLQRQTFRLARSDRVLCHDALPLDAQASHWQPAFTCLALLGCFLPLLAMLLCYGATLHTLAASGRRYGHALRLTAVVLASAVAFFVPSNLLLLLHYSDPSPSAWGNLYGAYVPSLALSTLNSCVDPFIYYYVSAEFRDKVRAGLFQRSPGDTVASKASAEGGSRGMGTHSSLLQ

[5] = biological target: T6, human PAR4 on isolated human platelets; assay: cell-based or functional assay
hPAR1 (Biotin) peptide [6] = biological target: T7, hPAR1 (Biotin) peptide (human, not fully specified; biotin on the C-terminal lysine (SKB)); assay: ELISA, hybridoma supernatant on immobilised peptide, binding as fold above control
T7 construct: also called PAR1 peptide; PAR1 screening peptide
T7 peptide: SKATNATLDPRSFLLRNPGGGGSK
Procedure: (§3) Wells were then washed with an automated plate washer (300 μl 1×PBS, 3 times). […] Wells were washed as above. A set of substrate tablets (1×silver, 1×gold) into 20 ml of ddH₂O by shaking vigorously on the thermomixer for 6 mins at room temperature. 50 μl of substrate ([…]™ […] Tablets (Sigma-Aldrich, N2770-50SET)) was added into each well and incubated for 20-25 mins at room temperature. 50 μl of STOP solution (2M Sodium Hydroxide, Solid (NaOH) (Merck, Cas #1310-73-2)) was added into each well to stop the reaction. Absorbance was read at 405 nm immediately after adding STOP solution with the ELISA reader, using the ‘RdrOle4’ software.
(§4) In order to determine the specificity of the anti-hPAR4 clones to PAR4, ELISA screening was performed as described above.

hPAR3 (Biotin) peptide [7] = biological target: T8, hPAR3 (Biotin) peptide (human, biotin on the C-terminal lysine (SKB)); assay: as above
T8 construct: also called PAR3 peptide; PAR3 screening peptide
T8 peptide: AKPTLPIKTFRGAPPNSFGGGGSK
Procedure: as §3, §4

hPAR2 (Biotin) peptide [8] = biological target: T9, hPAR2 (Biotin) peptide (human, not fully specified; biotin on the C-terminal lysine (SKB)); assay: as above
T9 construct: also called PAR2 peptide; PAR2 screening peptide
T9 peptide: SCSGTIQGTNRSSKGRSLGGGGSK
Procedure: as §3, §4

hPAR4 (naked) peptide [9] = biological target: T5, hPAR4 (naked) peptide; assay: ELISA, hybridoma supernatant
hPAR1 (Biotin) peptide [10] = biological target: T7, hPAR1 (Biotin) peptide; assay: ELISA, hybridoma supernatant
hPAR3 (Biotin) peptide [11] = biological target: T8, hPAR3 (Biotin) peptide; assay: ELISA, hybridoma supernatant
hPAR4 (Biotin) peptide [12] = biological target: T1, hPAR4 (Biotin) peptide; assay: SPR Bio-Rad ProteOn XPR36, biotin peptide captured, purified mAb as analyte
[13] = biological target: T6, human PAR4 on isolated human platelets; assay: cell-based or functional assay; remark: listed apart in the source
hPAR4 (naked) peptide [14] = biological target: T5, hPAR4 (naked) peptide; assay: ELISA, purified mAb on hPAR4 peptide coated wells, anti-mouse Fc-AP, absorbance 405 nm
Procedure: The experiment was completed with purified mAbs diluted in PBS instead of hybridoma supernatants.
The reactivity of seven purified anti-hPAR4 mAbs was analysed by ELISA (see Table 4).

hPAR1 (Biotin) peptide [15] = biological target: T7, hPAR1 (Biotin) peptide; assay: ELISA, biotinylated peptide on streptavidin plate, absorbance 405 nm
Procedure: (§5) Biotinylated peptides (hPAR1-4) were diluted in Wash buffer and allowed to bind to the blocked Streptavidin coated wells at 10 ug/ml (100 ul per well) for 1 hour at room temperature with gentle mixing. Wells were washed 3 times as above and purified anti-hPAR4 mAbs prepared at 10 ug/ml in Wash buffer were allowed to bind (100 ul/well) for 1 hour at room temperature with gentle mixing. The plate was washed 3 times as above and anti-mouse Fc conjugated to Alkaline phosphatase (AP) at 0.3 ug/ml (100 ul) was added to the wells for 1 hour as above. Wells were washed 3 times as above and developed with Alkaline Phosphatase substrate as described for the screening supernatant ELISA.
(§6) To further characterise the purified anti-hPAR4 mAb's the specificity of the mAbs to hPAR1, hPAR2, hPAR3 and hPAR4 biotinylated peptides was performed.

hPAR3 (Biotin) peptide [16] = biological target: T8, hPAR3 (Biotin) peptide; assay: as above
Procedure: as §5, §6

hPAR2 (Biotin) peptide [17] = biological target: T9, hPAR2 (Biotin) peptide; assay: as above
Procedure: as §5, §6

Kd (hPAR4 (Biotin) peptide [1]): 0.32 nM | koff (hPAR4 (Biotin) peptide [1]): 0.000417 s⁻¹ | kon (hPAR4 (Biotin) peptide [1]): 1.32e+06 M⁻¹ s⁻¹ | binding result (hPAR4 11-20 peptide): no binding | binding result (hPAR4 1-9 peptide): no binding | binding result (hPAR4 8-15 peptide): binds | ELISA Pos:Neg ratio (hPAR4 (naked) peptide [2]): 13.9 ratio | Kd (hPAR4 (naked) peptide [3]): 14.8 nM | koff (hPAR4 (naked) peptide [3]): 0.00487 s⁻¹ | kon (hPAR4 (naked) peptide [3]): 330000 M⁻¹ s⁻¹ | GMFI at 10 ug/ml over isotype control [4]: 39 | IC50 (ug/ml) for inhibition of platelet aggregation, 0.1 U/ml thrombin [5]: 1.6 µg/mL | binding result (hPAR1 (Biotin) peptide [6]): no binding | binding result (hPAR3 (Biotin) peptide [7]): no binding | binding result (hPAR2 (Biotin) peptide [8]): no binding | binding to PAR4 ratio (hPAR4 (naked) peptide [9]): 15.2 ratio | binding to PAR1 ratio (hPAR1 (Biotin) peptide [10]): 1 ratio | binding to PAR3 ratio (hPAR3 (Biotin) peptide [11]): 1.1 ratio | Kd (hPAR4 (Biotin) peptide [12]): ~0.4 nM
B1: 5A.RC3.F10b.H4b (antibody, IgG2a, V domains shown)
VH: QVQLVESGGGVVQPGRSLRLSCAASGFTLSNYGMHWVRQAPGKGLEWVSVIWYDGSNKHYADSVKGRFTISRDNSKNTLYLQMNSLRAEDTAVYYCARESIVEVLPPFDYWGQGTLVTVSS
VL: KIVLTQSPGTLSLSPGERVTLSCRASQRVRNNYLAWFQQKPGQAPRLFIYGASSRATGIPDRFSGSGSGTDFIFTISRLEPEDFAVYYCQQYGNSYTFGQGTKLEIK
notes: also called MoB5ARC3; MoB5A-RC3.F10b.H4b

binding result (hPAR4 1-9 peptide): no binding | platelet aggregation, % of control [13]: < 50 % of control | GMFI at 10 ug/ml over isotype control [4]: 53 | EC50 (read off the curve) (hPAR4 (naked) peptide [14]): ~0.1 µg/mL | binding result (hPAR1 (Biotin) peptide [15]): no binding (tested: 10 ug/ml) | binding result (hPAR3 (Biotin) peptide [16]): no binding (tested: 10 ug/ml) | binding result (hPAR2 (Biotin) peptide [17]): no binding (tested: 10 ug/ml)
B2: 5F.RF3.A7b.C9 (antibody, IgG2b, V domains shown)
VH: QVQLVQSGAEVKKPGASVKVSCKTSAYTFTNYGISWVRQAPGQGLEWMGWISPYNGNTNYAQKLQGRVTMTTDTSTRTAYMELRSLRSDDTAVYYCAREYNRSSRGRYYYYGMDVWGQGTTVTVSS
VL: EIVLTQSPGTLSLSPGERATLSCRASQSVSSNYLAWYQKKPGQAPRLLISGASSRATGIPDRFSGSGSGTDFTLTISRLEPEDFAVYYCQQYGSSPWTFGQGTKVEIK
notes: also called MoB5F-RF3.A7b.C9; MoB5F F3

— US20260184780A1 (MONASH UNIVERSITY, published 2026)
